These results are taken from publication PMC7320144 (Nature Communications, 2020).

Data set [1] concerns O=[N+]([O-])c1ccc(OP(=O)(O)O)cc1. Put plainly: purified protein. Type of data set: biochemical, Plasmodium falciparum. Particulars: Mg2+; 25.0 °C.
In data set [2] the target is T1, PfISN1 (IMP-specific nucleotidase 1) (Plasmodium falciparum, UniProt A0A144A134).
T1 construct: gene ISN1; wild-type, full-length
The experiment in a line: crystal structure; enzyme activation at pH […]. Type of data set: biochemical.

The target in data set [3] is PfISN1 D172N (full-length inactive mutant) (Plasmodium falciparum). The experiment in a line: crystal structure.
In data set [4] the target is PfISN1 D172N-ΔN30 (Plasmodium falciparum). Put plainly: crystal structure.
Data set [5] concerns the molecule itself. Put plainly: crystal structure; vapour diffusion in sitting drops at 292 K; protein 13 mg/mL in 50 mM Tris-HCl pH 8.0, 100 mM NaCl (or 50 mM MES pH 5.0, 100 mM NaCl); apo, ATP-bound or IMP-Mg2+-bound forms; homo-tetramer.

For orientation: Km means the substrate concentration at which the rate is half of its maximum. A word on the kcat: it is the maximal rate divided by the concentration of active sites. For orientation: kcat/Km means the second-order rate constant that governs catalysis at low substrate concentration. “PfISN1 (IMP-specific nucleotidase 1) (Plasmodium falciparum 3D7; D172N)”: in data set [1], the Km is 1510 ± 150 µM, the kcat was 0.28 ± 0.01 s⁻¹ and the kcat/Km turned out to be 190 ± 20 M⁻¹ s⁻¹.
In general, EC50 refers to the concentration at which the effect is half-maximal. Higher therefore signals a less potent agent. As for `Nc1ncnc2c1ncn2[C@@H]1O[C@H](COP(=O)(O)OP(=O)(O)OP(=O)(O)O)[C@@H](O)[C@H]1O` [ATP], a half-maximal effect in data set [2] (EC50) was put at 3.8 ± 0.7 mM.
By stoichiometry N is commonly meant the number of molecules, sites or subunits per partner or assembly. Regarding “PfISN1 D172N (full-length inactive mutant) (from UniProt A0A144A134 1-444) (enzyme)”, the stoichiometry N in data set [3] turned out to be 4.
Consider “PfISN1 D172N-ΔN30 (from UniProt A0A144A134 31-444) (domain or fragment)”, for which the stoichiometry N in data set [4] worked out at 4.

B1: Plasmodium falciparum IMP-specific nucleotidase 1 (PfISN1), wild type (enzyme, UniProt A0A144A134 1-444, looked up)
chain: MKNLDINTFDNIEDIPLGSSEQDPYDFFTLSDRNVMNSDMKKNIVQWNSRYSYNQLKNKDSLIMFLVEIFRSLFVSNCIDKNIDNVLLSIEEMFIDHYYNPQHSRLKYLIDDVGIFFTKLPITKAFHTYNKKYRITKRLYAPPTFNEVRHILNLAQILSLEEGLDLLTFDADETLYPDGHDFNDEVLASYISCLLKKMNIAIVTAASYNNDAEKYQKRLENLLKYFSKHNIKDGSYKNFYVMGGESNYLFKCNEEATLYSVPENEWRHYKKFVDYDTVQEILNISEKCLEKVIKDFGLCAQIQRKEKSIGLVPNKIPSLNIKNEQKNYMIKYEVLEEAVIRIKKEIIKNKITAPYCAFNGGQDLWVDVGNKAEGLLILQKLLKIQKKKCCHIGDQFLHSGNDFPTRFCSLTLWVSNPQETKACLKSIMHLNIKSFIPEVLYENQ
notes: IMP-specific 5'-nucleotidase 1 (ISN1, EC 3.1.3.99) of Plasmodium falciparum, 444 amino acids, gene PF3D7_1206100; domains M1-K59 (NTRD), D60-T143 (OD), F144-K270 and K371-Q444 (CD), K271-N370 (cap); Cloned into pET-21bN; details of constructs and of purification for structural studies are in Supplementary Methods; A selenomethionine derivative (E. coli B834 (DE3)) was used for phasing; also …
In the case of B1, in data set [5], the “stoichiometry N” value is 4.

B2: PfISN1-ΔC10 (domain or fragment, Plasmodium falciparum, UniProt A0A144A134 1-434, looked up)
chain: MKNLDINTFDNIEDIPLGSSEQDPYDFFTLSDRNVMNSDMKKNIVQWNSRYSYNQLKNKDSLIMFLVEIFRSLFVSNCIDKNIDNVLLSIEEMFIDHYYNPQHSRLKYLIDDVGIFFTKLPITKAFHTYNKKYRITKRLYAPPTFNEVRHILNLAQILSLEEGLDLLTFDADETLYPDGHDFNDEVLASYISCLLKKMNIAIVTAASYNNDAEKYQKRLENLLKYFSKHNIKDGSYKNFYVMGGESNYLFKCNEEATLYSVPENEWRHYKKFVDYDTVQEILNISEKCLEKVIKDFGLCAQIQRKEKSIGLVPNKIPSLNIKNEQKNYMIKYEVLEEAVIRIKKEIIKNKITAPYCAFNGGQDLWVDVGNKAEGLLILQKLLKIQKKKCCHIGDQFLHSGNDFPTRFCSLTLWVSNPQETKACLKSIMHLNIKS
notes: PfISN1 (444 amino acids, gene PF3D7_1206100) truncated by ten residues at the C-terminus; Construct details are in Supplementary Methods; also called ∆C10-truncated PfISN1; source: E. coli BL21-CodonPlus (DE3)-RIL (structural studies), purified
Consider B2, for which, in data set [5], the “stoichiometry N” value worked out at 4.

B3: PfISN1-ΔN59 (domain or fragment, Plasmodium falciparum, UniProt A0A144A134 60-444, looked up)
chain: DSLIMFLVEIFRSLFVSNCIDKNIDNVLLSIEEMFIDHYYNPQHSRLKYLIDDVGIFFTKLPITKAFHTYNKKYRITKRLYAPPTFNEVRHILNLAQILSLEEGLDLLTFDADETLYPDGHDFNDEVLASYISCLLKKMNIAIVTAASYNNDAEKYQKRLENLLKYFSKHNIKDGSYKNFYVMGGESNYLFKCNEEATLYSVPENEWRHYKKFVDYDTVQEILNISEKCLEKVIKDFGLCAQIQRKEKSIGLVPNKIPSLNIKNEQKNYMIKYEVLEEAVIRIKKEIIKNKITAPYCAFNGGQDLWVDVGNKAEGLLILQKLLKIQKKKCCHIGDQFLHSGNDFPTRFCSLTLWVSNPQETKACLKSIMHLNIKSFIPEVLYENQ
notes: PfISN1 (444 amino acids, gene PF3D7_1206100) with the N-terminal regulatory domain (NTRD, M1 to K59) deleted; limits worked out from the name ΔN59 and the printed domain limits; Co-crystallized with IMP, IMP not observed in the structure; Construct details are in Supplementary Methods; also called ∆N59-truncated PfISN1; source: E. coli BL21-CodonPlus (DE3)-RIL (structural studies), purified
Consider B3, for which the “stoichiometry N” value in data set [5] amounted to 4.
